The values that follow come from article doi:10.1101/2024.08.16.608256 (bioRxiv, 2024).

This data set deals with the molecule itself. Briefly: SDS-resistant dimer on SDS-PAGE with western blot. For orientation: A western blot detects proteins with antibodies after separation by electrophoresis.

As a reminder, the stoichiometry N is a count of units in the complex or per binding partner.

B1: ΔN(45)-YqjD (domain or fragment, E. coli, UniProt P64581 46-101, looked up)
chain: ALKQSRYRLGETGDAIAKQTRVAAARADEYVRENPWTGVGIGAAIGVVLGVLLSRR
Take B1: the binding result was “binds”.

Regarding IAKQTRVAAARADEYVRENPWTGVGIGAAIGVVLGVLLSRR (domain or fragment, E. coli, UniProt P64581 61-101, looked up) [ΔN(60)-YqjD], the binding result is listed as “binds”.

B2: YqjD (wild type, full-length, N-terminal Xpress-His6-tag) (natural protein, E. coli, UniProt P64581 1-101, looked up)
chain: MSKEHTTEHLRAELKSLSDTLEEVLSSSGEKSKEELSKIRSKAEQALKQSRYRLGETGDAIAKQTRVAAARADEYVRENPWTGVGIGAAIGVVLGVLLSRR
In the case of B2, the “stoichiometry N” value is 2.

B3: ΔN(30)-YqjD (domain or fragment, E. coli, UniProt P64581 31-101, looked up)
chain: KSKEELSKIRSKAEQALKQSRYRLGETGDAIAKQTRVAAARADEYVRENPWTGVGIGAAIGVVLGVLLSRR
In the case of B3, the binding result is recorded as “binds”.

B4: ΔN(12)-YqjD (domain or fragment, E. coli, UniProt P64581 13-101, looked up)
chain: ELKSLSDTLEEVLSSSGEKSKEELSKIRSKAEQALKQSRYRLGETGDAIAKQTRVAAARADEYVRENPWTGVGIGAAIGVVLGVLLSRR
B4: the binding result was “binds”.
